This experiment deals with T1, GST-17NAnk (GST-tagged N-terminal cytosolic domain of zDHHC17, amino acids 11-305) (mouse, UniProt Q80TN5-1 11-305).
T1 sequence (looked up): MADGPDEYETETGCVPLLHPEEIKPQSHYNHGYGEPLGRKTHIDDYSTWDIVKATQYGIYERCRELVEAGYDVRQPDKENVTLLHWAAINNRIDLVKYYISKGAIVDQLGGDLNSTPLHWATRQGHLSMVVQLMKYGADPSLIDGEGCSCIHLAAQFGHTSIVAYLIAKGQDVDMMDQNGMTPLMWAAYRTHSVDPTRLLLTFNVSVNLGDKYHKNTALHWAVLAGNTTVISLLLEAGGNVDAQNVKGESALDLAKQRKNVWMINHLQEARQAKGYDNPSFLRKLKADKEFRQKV
Nature of the experiment: pull-down.

B1: Myc-tagged CSP, palmitoylated (p) (natural protein, UniProt Q29455 1-198, looked up)
chain: MADQRQRSLSTSGESLYHVLGLDKNATSDDIKKSYRKLALKYHPDKNPDNPEAADKFKEINNAHAILTDATKRNIYDKYGSLGLYVAEQFGEENVNTYFVLSSWWAKALFIFCGLLTCCYCCCCLCCCFNCCCGKCKPKAPEGEETEFYVSPEDLEAQLQSDEREAADTPIVIQPASATETTQLTADSHPSYHTDGFN
modifications: palmitoylated (S-acylated) cysteines, positions not given
For the molecule B1, the “fold lower binding than nonpalmitoylated Myc-CSP” value came out at 6 fold.

These data come from PMC4244197 (Molecular Biology of the Cell, 2014).
